System: T1, His-NrtR (Pseudomonas aeruginosa PAK), ORF:d24b93ef
T1 sequence: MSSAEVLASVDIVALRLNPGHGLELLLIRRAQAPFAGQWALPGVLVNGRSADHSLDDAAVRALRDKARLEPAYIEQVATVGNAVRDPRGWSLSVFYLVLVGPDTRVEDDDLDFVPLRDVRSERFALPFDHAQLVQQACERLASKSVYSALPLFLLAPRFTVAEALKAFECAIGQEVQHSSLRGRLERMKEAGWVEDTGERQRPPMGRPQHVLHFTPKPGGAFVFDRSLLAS
Assay: EMSA
Conditions: 10 mM Tris, 1 mM DTT, pH 7.5, […]

Sequence | binding
AGAAAATACCTTCCACTGCGAAATTTTGTAGTACAAGTGCTTGACGACTTATTTCACGTGATGAATTATGTACCCACATTCAGCCCCAACCCGTCAAGCGGAGGCTTCC (double strand) [nadD2 promoter fragment] | binds
CAGGAGTGATATTAGCGATTCCCAGTGCTCCCGCAACCTGCCAGAAAACCCAGCGAAGCTTCTTCGGCAGCCATTTTAGAAAAATATATTCCTTTAATTTCAATAAGTTACTTAAATTCACCGAGCGTTTTTGGCAAACCTCCCGGGCATTTATCTACTTAGGCTCACACGCCGTGTAAGTTAATGCTTACAAGAGCAGACACAAAAAACCCGGCGAACGCCGGGTCTTCAGTGGGTCTAAGGTTTTCCG (double strand) [rsmZ promoter fragment] | binds
CCGCGTTGCCGACCGTGGCCACCTGCTCGATGTAGGCCGGCTCCAGCCGCGCCTTGTCGCGCAGGGCGCGCACCGCCGCGTCGTCGAGGCTGTGGTCGGCGCTGCGGCCGTTGACCAGCACGCCGGGCAAGGCCCACTGGCCGGCGAAAGGCGCCTGGGCGCGGCGGATCAGCAACA (double strand) [nrtR coding fragment] | no binding
GCTGGGAAGGCTCGCGATGATGAGGGGACTGGCCACTGTAGCGGGCCCGGCGCAGATCATCTTGACGCACGGCAAGCTCCCGGCGGCTGGGTGTTGCCGTCGGTCCGGCGAGCGGAACTATTACAGCGTGTAAGCCAAGGCTTACAAACGGCGGTGGTTTTGGCTGCTTTCTCCCCCTCGCGGAGATGCGTAATCTTCAAACCGTCAGGACATTGCGCAGGAAGCGCCAAAGACAATACGG (double strand) [rsmY promoter fragment] | binds

— PMC8865458
